Measurements from the supplement of paper PMC10567573.

B1: IKZF1 (parent)
chain: YHSQDRYEFSSHITRGEHRFHMS
B2: STX5 (parent)
chain: RSEFTLMAKRIGKDLSNTFAKLEK

Variants of: B1
Test: protein stability index of a GFP-peptide fusion (GPS, HEK-293T) (PSI 1-6); higher = more stable
Conditions: c terminus: native
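Note: lentivirally expressed fusions sorted by FACS into six bins by GFP to DsRed ratio, PSI derived from sequencing read proportions per bin multiplied by bin number.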

Protein stability index: each site, then its substitutions
M22: S 2.03, H 1.66, V 2, R 1.99, Q 2.11, W 1.65, I 2.48, T 2.06, C 3.14, P 2.01, N 2.06, A 2.58, G 3.65, K 1.46, F 1.53, L 1.4, D 1.94, Y 1.56, E 1.82
H18: S 1.83, V 1.68, R 1.82, Y 1.83, W 2.34, Q 1.72, T 1.92
R19: D 1.93, W 2.84, K 1.95, C 3.13, A 2.47, I 2.17, S 1.99, M 1.92, Q 2.28, V 2.16, E 3.06, P 1.77, G 1.89, N 2.27, H 1.3, L 2.54, F 2.39, Y 2.16, T 1.92
S23: Y 2.42, M 1.62, W 2.5, Q 2.68, C 1.94, D 1.5, P 2, V 1.97, E 1.5, N 2.08, K 2.28, R 1.61, H 2.23, F 2.01, T 2.02, G 2, I 2.18, A 1.8, L 1.68
H21: I 3.07, L 2.13, P 1.89, F 1.98, R 2.88, G 2.11, M 1.6, N 2.27, K 1.37, C 1.69, D 2.15, E 1.44, Q 2.22, W 1.81, V 2.25, Y 1.76, A 2.43, S 1.89, T 2.04
F20: V 1.39, H 1.93, N 2.56, A 2.15, W 2.93, T 1.75, M 1.83, K 2.38, I 3.73, G 1.67, S 2.05, E 1.42, Q 2.5, Y 1.75, D 1.76, C 2.12, R 2.36, P 1.59, L 2.37

Variants of: B2
Test: as above
Conditions: c terminus: a fixed tail appended

Protein stability index, by site and new letter:
L15: S 2.81, F 2.92, V 1.9, T 3.27, E 3.89, P 3.14, K 3.24, N 3.79, C 1.53, M 2.72, I 3.43, A 2.59, R 2.97, W 2.05, Y 2.4, D 3.46, Q 3.1, G 3.75, H 2.6
S16: D 2.45, C 1.65, F 4.43, E 1.41, G 2.41
L6: N 2.06, V 2.28, F 2.36, D 1.4, I 3.08, P 2.85, G 1.63, Q 2.23, C 2.21, H 1.86, T 2.48, R 3.66, W 2.53
K13: G 2.84, R 2.33, S 2.55, N 2.06, T 1.46, Q 2.35, A 1.49, P 2.54, M 1.07, C 2.46, L 2.83, E 2.34, V 2.1, D 3.34, F 3.26
T5: F 3.04, W 2.76, K 1.54, C 1.8, Q 1.02, L 2.46, I 2.62, P 2.69, E 1.35, N 2.57, H 2.58, D 2.25
F4: M 2.35, S 3.69, V 1.8, P 3.58, A 2.48, L 2.33, Q 3.49, W 3.86, N 2.98, Y 2.1, R 3.34, H 3.31, K 3.62, E 4.58, D 3.88, C 2.65, G 3.64
E3: C 2.91, K 2.75, Q 4.2, L 4.31, T 3.43, M 2.25, P 4.75, R 3.64, Y 2.51, H 2.61
R10: M 1.99, P 4.03, N 2.36, Y 1.28, I 1.95, D 3.12, C 2.66, F 2.29, S 2.11, G 2.35, L 2.73, V 1.09, A 2.85, T 1.99, W 2.02, K 3.31, Q 1.05, E 2.94, H 2.01
S2: G 1.51, W 2.39, F 2.72, P 2.07, A 1.36, C 3.2, T 1.9, Q 3.27, N 1.03, D 1.66
G12: N 1.81, P 3.81, E 2.42, H 2.87, Q 1.69, F 2.15, C 2.2, S 3.15, D 2.9, K 2.79, V 1.54, M 2.58, L 3.53, R 2.16
M7: A 1.64, G 2.73, D 4.15, T 2.54, P 3.36, N 3.04, Q 3.21, V 2.73, R 2.72, S 3.12, Y 2.39, C 1.01, H 2.03, K 3.75, W 3.31, E 3.2, F 3.38
I11: P 3.52, L 1.57, E 3.9, M 1.65, G 3.41, N 4.29, V 1.16, R 3.81, H 3.46, Q 3.33, Y 2.14, W 1.18, C 2.06, K 2.93, F 3.65, D 3.84, T 3.13, S 3.87, A 2.77
R1: I 1.92, T 2.7, A 2.12, V 2.54, H 3.98, Y 4.8, S 2.54, D 1.92, N 1.82, P 2.63, E 1.45, L 3.25, Q 1.49, K 2.08
D14: M 2.59, Y 2.65, G 3.97, P 2.49, Q 4.98, T 4.17, C 2.71, K 3.03, I 4.05, L 2.61, A 4.25, E 4.59, V 2.64, S 2.13
A8: Q 2.96, P 3.46, Y 1.85, N 3.4, E 2.87, K 2.99, D 3.02, T 1.54, W 2.44, S 2.1, I 2.79, C 2.49, H 3.46, R 2.79, G 2.49
K9: G 2.01, H 2.64, N 2.63, P 2.94, S 2.87, Y 2.99, C 2.1, I 1.82, T 2.06, D 2.83, F 1.53, M 1.92, R 2.04, E 2.56, V 2.17, W 1.97, Q 2.54, L 1.88, A 1.66
